# B1: H11YL: second generation DhaA.H272F mutant, H11 recombined with Y273L; SEQ ID NO:18 (protein)
# chain: SEIGTGFPFDPHYVEVLGERMHYVDVGPRDGTPVLFLHGNPTSSYLWRNIIPHVAPSHRCIAPDLIGMGKSDKPDLDYFFDDHVRYLDAFIEALGLEEVVLVIHDWGSALGFHWAKRNPERVKGIACMEFIRPIPTWDEWPEFARETFQAFRTADVGRELIIDQNAFIEGALPMGVVRPLTEVEMDHYREPFLKPVDREPLWRFPNELPIAGEPANIVALVEAYMNWLHQSPVPKLLFWGTPGVLIPPAEAARLAESLPNCKTVDIGPGLFLLQEDNPDLIGSEIARWLPAL
# What was measured:
# [1] = Kinetic labeling studies, fluorimage gel analysis; assay type: binding; details: 10 ng protein, refined time-course, fluorimaged gel
# Procedure: To facilitate comparative kinetic studies several improved DhaA mutants were selected for purification using a Glutathione Sepharose 4B resin. In general, production of DhaA.H272F and DhaA.D106C based fusions in E. coli was robust, although single amino acid changes may have negative consequences on the production of DhaA. As a result of this variability in protein production, the overall yield of the DhaA mutants also varied considerably (1-15 mg/mL). Preliminary kinetic labeling studies were performed using several DhaA.H272F derived mutants. Many, if not all, of the mutants chosen for analysis had faster labeling kinetics than the H272F parent. In fact, upon closer inspection of the time course, the labeling of several DhaA mutants including the first generation mutant YL and the two second generation mutants, A7YM and H11YL mutants appeared to be complete by 2 minutes. A more expanded time course analysis was performed on the DhaA.H272F A7 and the two second generation DhaA.H272F mutants A7YM and H11YL. […] The fluorescent bands on gel were quantitated and the relative rates of product formation determined. […] Under these labeling conditions a linear initial rate could be measured. Quantitation of the fluorimaged gel data allowed second order rate constants to be calculated. […]
# [2] = Fluorescence polarization (FP) labeling assay; assay type: binding
# Description: Fluorescence polarization (FP) is ideal for the study of small fluorescent ligands binding to proteins. It is unique among methods used to analyze molecular binding because it gives direct nearly instantaneous measure of a substrate bound/free ratio. Therefore, an FP assay was developed as an alternative approach to fluorimage gel analysis of the purified DhaA mutants. […] To place this rate in perspective, approximately 42 and 420-fold more A7 and parental, i.e., DhaA.H272F, protein, respectively, was required in the reaction to obtain measurable rates. Under the labeling conditions used, it is evident that the H11YL mutant was also considerably faster than A7 and parental, DhaA.H272F proteins with the fluorescein-based substrate. However, it appears that labeling of H11YL with carboxyfluorescein-C10H21NO2—Cl is markedly slower than labeling with the corresponding carboxytetramethylrhodamine-C10H21NO2—Cl substrate. Four-fold more H11YL protein was used in the carboxyfluorescein-C10H21NO2—Cl reaction (150 nM) versus the carboxytetramethylrhodamine-C10H21NO2—Cl reaction (35 nM), yet the rate observed appeared to be qualitatively slower than the observed carboxytetramethylrhodamine-C10H21NO2—Cl rate.
# Based on the sensitivity and truly homogenous nature of this assay, FP was used to characterize the labeling properties of the purified DhaA mutants with the fluorescently coupled substrates. The data from these studies was then used to calculate a second order rate constant for each DhaA mutant-substrate pair. […] However, in each case labeling was slower with the carboxyfluorescein-C10H21NO2—Cl substrate. All of the first generation DhaA mutants characterized by FP had rates that ranged from 7 to 3555-fold faster than the corresponding parental protein. By far, the biggest impact on labeling rate by a single amino acid substitution occurred with the three replacements at the 273 position (Y273L, Y273M, and Y273C) in the DhaA.H272F background. Nevertheless, in each of the first generation DhaA.H272F mutants tested, labeling with the carboxyfluorescein-C10H21NO2—Cl substrate always occurred at a slower rate (1.6 to 46-fold). […] The H11YL rate constant of 2.2×10^6 M^−1 sec^−1 was nearly identical to the rate constant calculated for a carboxytetramethylrhodamine-coupled biotin/streptavidin interaction. This value is consistent with an on-rate of 5×10^6 M^−1 sec^1 determined for a biotin-streptavidin interaction using surface plasmon resonance analysis (Qureshi et al., 2001). Several of the second generation mutants also had improved rates with the carboxyfluorescein-C10H21NO2—Cl substrate, however, as noted previously, these rates were always slower than with the carboxytetramethylrhodamine-C10H21NO2—Cl substrate. […]
# [3] = biological target: T1, rapamycin-mediated FRB/FKBP protein-protein interaction (Homo sapiens, UniProt P42345+P62942); assay: Protein complementation labeling (PCL) in vitro with split HT2; assay type: biochemical; details: with or without 1 μM rapamycin, 0.1 μM TMR ligand
# T1 construct: made in house; host or cells: cell-free: RiboMax transcription followed by Wheat Germ Plus translation
# T1 sequence (P42345 2012-2144 limits assumed): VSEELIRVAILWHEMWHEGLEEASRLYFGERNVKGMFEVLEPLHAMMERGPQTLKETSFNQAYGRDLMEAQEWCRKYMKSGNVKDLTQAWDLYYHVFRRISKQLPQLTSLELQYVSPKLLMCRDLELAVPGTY
# T1 sequence (P62942 whole entry): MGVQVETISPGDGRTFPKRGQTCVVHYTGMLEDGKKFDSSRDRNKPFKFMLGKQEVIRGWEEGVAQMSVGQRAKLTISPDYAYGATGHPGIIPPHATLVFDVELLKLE
# Procedure: The rapamycin-mediated FRB/FKBP protein-protein interaction and a mutant DhaA were employed in a PCL. FRB and FKBP will only interact when rapamycin is present. Therefore, if PCL is successful, the reconstituted reporter is labeled only when the fusion proteins are incubated together in the presence of rapamycin.
# Two pF9 (Kan) vectors were generated which contained either FRB or FKBP ORF plus the linker sequence (GlyGlyGlyGlySer)2 (SEQ ID NO:14 represents GlyGlyGlyGlySer) upstream of the SefI/PmeI sites. A mutant DhaA gene (HT2) at positions corresponding to those useful to prepare Renilla luciferase fragments for PCS (see Example 2 and FIG. 7) with FRB-N terminal and FKBP-C terminal fusions. HT2 N- and C-termini halves were amplified using PCR primers and cloned into the SefI/PmeI sites. PCL was performed in vitro by expressing each clone individually using RiboMax followed by Wheat Germ Plus reactions (HT2). Protein was expressed with or without FluoroTect™. FluoroTect™ labeling ensured that all proteins were expressed in approximately equal amounts (data not shown). Unlabeled proteins were then incubated alone or with the appropriated partner with or without 1 μM rapamycin. Ten μl of these products were then incubated with 0.1 μM of a TMR labeled ligand for the mutant dehalogenase, for 2 hours in the dark. […]
# [4] = Thermostability of mutant DhaAs; assay type: physicochemical
# Procedure: Moreover, V7>V6>V7F>V3>HT2 for thermostability. For example, under some conditions (30 minute exposure to 48° C.) purified V7F loses 50% of its activity, while V7 still maintains 80% activity. The thermostability discrepancy between the two is more dramatic when they V7 and V7F are expressed in E. coli and analyzed as lysates.
# [5] = biological target: T1, rapamycin-mediated FRB/FKBP protein-protein interaction; assay: PCL in transiently transfected CHO cells; assay type: cell-based; details: +/−1 μM rapamycin, 1.0 μM HaloTag TMR ligand
# Procedure: For transient transfections, CHO cells were plated in a 6 well plate and transfected in duplicate using TransIT®-CHO. The next day, cells were incubated +/−1 μM rapamycin for 2.5 hours followed by 1.0 μM HaloTag® TMR ligand for 1 hour. Cells were washed in PBS, trypsinized, pelleted and mechanically lysed in 200 ul PBS with protease inhibitor and RQDNase I. Normalized amounts of proteins were microwaved for 30 seconds on high and run on a denaturing NuPAGE® gel.
molecule,measurement,setting,value
B1,second order rate constant for labeling,[1],500000 M⁻¹ s⁻¹
same,carboxyfluorescein-C10H21NO2—Cl labeling rate slower/lower than carboxytetramethylrhodamine-C10H21NO2—Cl labeling rate,[2],100 fold
same,calculated second order rate constant,[2]; FP,2.2e+06 M⁻¹ s⁻¹
same,second order rate constant compared with the DhaA.H272F parent,[2]; FP,over four orders of magnitude higher
same,TMR labeling,[3],labeled
same,thermostability ranking,[4],V7>V6>V7F>V3>HT2
same,TMR labeling in CHO cells,[5],labeled irrespective of rapamycin addition
